Data from patent EP4197559A1, “IMMUNOMODULATORY PROTEIN-SIRNA COMPLEX HAVING ANTICANCER ACTIVITY” (Korea Institute of Science and Technology, priority 2020, dated 2022).

Columns and labels:
[1] = biological target: T1, papain enzyme (Carica papaya, UniProt P00784); assay: Enzyme specificity: cleavage by papain enzyme, analysed by HPLC; assay type: biochemical
T1 sequence (P00784 134-345): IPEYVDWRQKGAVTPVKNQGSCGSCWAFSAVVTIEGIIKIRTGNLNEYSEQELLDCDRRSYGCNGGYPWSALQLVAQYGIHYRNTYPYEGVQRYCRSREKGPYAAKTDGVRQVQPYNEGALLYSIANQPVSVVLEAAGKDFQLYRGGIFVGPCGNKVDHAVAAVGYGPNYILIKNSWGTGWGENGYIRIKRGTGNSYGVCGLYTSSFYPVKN
Method: After adsorbing the sample to a C18 column (Xbridge C18, Waters, MS, USA), it was analyzed by HPLC (Agilent Technologies, CA, USA) while eluting for 30 minutes with concentration gradients using 0.1% TFA/5-95% ACN solutions.

[2] = test system: HT-29 cells; assay: Intracellular delivery (uptake) by confocal microscopy; assay type: cell-based, human
Method: First, 2×10^5 HT-29 cells, which are human-derived colon cancer cells, were seeded onto a 35-mm cover glass bottom dish. […] Then, CD47 SiRNA was stained red by using the TOTO3 stain. Next, after treating with the fusion protein-siRNA complex separated and purified in Example 2 at a concentration of 100 pmol/mL, the cells were cultured for 4 hours in a carbon dioxide incubator at 37 °C. Then, the cells were treated with a fixative and the SIRPα protein was stained green using FITC-labeled His-tag antibody. After staining the nuclei of the cells by treating with a 4',6-diamidino-2-phenylindole (DAPI) solution for 10 minutes, fluorescence was measured by confocal microscopy.
In the figure, the blue color corresponds to the nuclei of the cells, the red color to the CD47 siRNA, and the green color to the SIRPα protein.

[3] = test system: HPRT gene; assay: Silencing effect for HPRT gene expression (RT-PCR, agarose gel); assay type: cell-based, rat; details: CT26.CL25 cells, 4 hours serum-free then 2 days
[4] = test system: CD47 gene; assay: Silencing effect for CD47 gene expression (RT-PCR, agarose gel); assay type: cell-based, mouse; details: CT26.CL25 cells, 4 hours serum-free then 2 days, without CD47 antibody (-)
[5] = test system: CT26.CL25 cells; assay: Cytotoxicity by CCK-8 (cell counting kit-8); assay type: cell-based, mouse; details: 800 nM, 72 hours
Method: Then, the cells were analyzed using the CCK-8 (cell counting kit-8) kit.

[6] = test system: macrophages (bone marrow-derived macrophages, BMDM); assay: Macrophage phagocytosis of treated cancer cells (fluorescence microscopy); assay type: cell-based, mouse
Method: After the culturing was completed, the CT26.CL25 cells were stained with pHrodo Red (Invitrogen, CA, USA) and, after adding macrophages (bone marrow-derived macrophages, BMDM) extracted from the bone marrow of a laboratory mouse (C57BL/6, male, 6-week-old), cultured for 3 hours in RPMI 1640 medium. The macrophages were stained with Green Cell Tracker (Thermo Fisher Scientific, MS, USA) and fluorescence was measured using a fluorescence microscope (Nikon, Japan).
A control group was treated only with the SIPRα protein.

[7] = test system: cancer cells; assay: Pharmacological effect on cancer cells (general statement, no method given)

B1: Example 2: Immunoregulatory fusion protein (SIRPα-linker, SEQ ID NO 1) bound 1 : 1 via cysteine thiol-maleimide to CD47 siRNA (SEQ ID NO 17/18) (conjugate)
chain 1: EEELQIIQPDKSVLVAAGETATLRCTITSLFPVGPIQWFRGAGPGRVLIYNQRQGPFPRVTTVSDTTKRNNMDFSIRIGNITPADAGTYYCIKFRKGSPDDVEFKSGAGTELSVRAKPVDGGFLGGGGCG
chain 2: gggauauuaauacuacuucaguacaca
chain 3: uguacugaaguauuaauauccccg
modifications: cysteine thiol-maleimide conjugation of protein to siRNA; fusion protein; siRNA_DNA : The 26th and 27th nucleotide sequences are DNA; siRNA ansti sense
B1 was tested, and the “SIRPα protein detected by HPLC” value ([1]; after treating with the papain enzyme, room temperature, 10 minutes) was “detected after treating with the papain enzyme”, the “SIRPα protein detected by HPLC” value ([1]; complex not treated with the papain enzyme (control)) was “not detected” and the absorption into cells ([2]; confocal microscopy) was “effectively absorbed into cells”. The intracellular uptake ([2]; treated together with the CD47 antibody) was “decreased significantly”, the “expression level of the HPRT gene” value [3] was “little change in the expression level of the HPRT gene” and the “expression of the CD47 gene” value [4] was “decreases the expression of the CD47 gene to a level comparable to that of the lipofectamine-siRNA complex”. For the same molecule, the cell viability [5] was at least 80%, the phagocytosis by macrophages ([6]; CT26.CL25 cells treated at 200 pmol/mL for two days, then BMDM for 3 hours, compared with siRNA alone) was “enhances phagocytosis by macrophages better than when the siRNA was used alone” and the “effect of enhancing macrophage phagocytosis as compared to only the siRNA (CD47 siRNA) or the SIPRα protein” value ([6]; printed as 1.5-3 times or higher) was 1.5-3 times. The “superior pharmacological effect on cancer cells as compared to the fusion protein or the siRNA administered alone” value [7] was 1.5-5 times.
